For test [1], the target named is micro(μ)-plasmin (human, UniProt P00747 561-580; P00747 581-810). Put plainly: SEC. (In general: SEC sorts molecules by how far they enter the pores of the column.)
The target of test [2] is Glu-plasminogen. Description: SPR. In general terms: In SPR one partner is held on a chip, and binding of the other changes the refractive index at the surface.
For test [3], the target named is tissue plasminogen activator (tPA, Alteplase). Description: SPR.

Chain of Glu-plasminogen (P00747 20-810): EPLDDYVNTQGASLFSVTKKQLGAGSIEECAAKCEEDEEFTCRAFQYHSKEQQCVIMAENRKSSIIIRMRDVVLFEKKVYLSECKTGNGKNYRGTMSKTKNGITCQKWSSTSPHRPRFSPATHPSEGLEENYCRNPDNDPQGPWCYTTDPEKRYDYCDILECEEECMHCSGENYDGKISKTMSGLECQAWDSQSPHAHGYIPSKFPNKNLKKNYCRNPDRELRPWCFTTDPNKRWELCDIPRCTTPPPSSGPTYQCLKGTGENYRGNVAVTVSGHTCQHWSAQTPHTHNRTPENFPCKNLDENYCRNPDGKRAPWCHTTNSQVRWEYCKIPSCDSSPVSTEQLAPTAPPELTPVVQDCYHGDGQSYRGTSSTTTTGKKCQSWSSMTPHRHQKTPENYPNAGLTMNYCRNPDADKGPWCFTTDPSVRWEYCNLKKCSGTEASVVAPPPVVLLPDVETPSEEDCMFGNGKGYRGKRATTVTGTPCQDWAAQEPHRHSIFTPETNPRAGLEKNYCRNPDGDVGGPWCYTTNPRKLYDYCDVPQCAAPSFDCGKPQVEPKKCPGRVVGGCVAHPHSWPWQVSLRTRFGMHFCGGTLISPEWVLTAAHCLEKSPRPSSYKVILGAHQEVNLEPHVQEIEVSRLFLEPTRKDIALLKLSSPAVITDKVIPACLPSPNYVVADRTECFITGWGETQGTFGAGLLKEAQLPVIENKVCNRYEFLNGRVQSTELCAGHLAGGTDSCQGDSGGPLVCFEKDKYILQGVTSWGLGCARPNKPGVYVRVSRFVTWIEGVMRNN
Chain of micro(μ)-plasmin (P00747 561-580, chain 1 of 2): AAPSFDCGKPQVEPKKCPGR
Chain of micro(μ)-plasmin (P00747 581-810, chain 2 of 2): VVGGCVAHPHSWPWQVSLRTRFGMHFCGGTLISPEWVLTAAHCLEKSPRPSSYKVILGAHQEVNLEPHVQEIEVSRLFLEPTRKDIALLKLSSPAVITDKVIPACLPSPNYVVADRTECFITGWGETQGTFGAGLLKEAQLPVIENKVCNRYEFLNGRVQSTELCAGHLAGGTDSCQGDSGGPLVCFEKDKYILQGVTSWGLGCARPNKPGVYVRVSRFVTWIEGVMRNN

B1: KD1_(L17R)-KT (Kunitz domain 1 of tissue factor pathway inhibitor-2, Leu17Arg, with C-terminal lysine) (domain or fragment, human, UniProt P48307 30-94, looked up)
chain: GNNAEICLLPLDYGPCRARLLRYYYDRYTQSCRQFLYGGCEGNANNFYTWEACDDACWRIEKVPK
What is called Kd is the constant that tells how readily two partners part at equilibrium. Low readings indicate tighter binding, high ones weaker binding. For orientation: koff means a measure of how fast the partners let go of each other. Broadly, the kon is a measure of how fast the partners come together. Low readings indicate slow association, high ones fast association. As for B1, the binding result in test [1] is reported as “binds”. In test [2], this molecule returned a Kd of 0.28 µM, an RU at 1 μM analyte of 86 RU, a koff of 0.00031 s⁻¹ and a kon of 1100 M⁻¹ s⁻¹. In test [3], this molecule had a Kd of 0.21 µM, an RU at 1 μM analyte of 155 RU, a koff of 0.00019 s⁻¹ and a kon of 910 M⁻¹ s⁻¹.

B2: KD1_(L17R)-VT (Kunitz domain 1 of tissue factor pathway inhibitor-2, Leu17Arg, with C-terminal valine) (domain or fragment, human)
chain: GSHMDAAQEPTGNNAEICLLPLDYGPCRARLLRYYYDRYTQSCRQFLYGGCEGNANNFYTWEACDDACWRIEKVPKV
Turning to B2, in test [1], the binding result is listed as “binds”. In test [2], the RU at 1 μM analyte came out at 12 RU.

For the origin of these results see paper PMC3985851 (Biochemistry, 2014).
